Laboratory results as given in patent publication US20090148466A1, “Process for the Preparation of Hypoallergenic Mosaic Antigens” (BIOMAY AG, priority 2003, published 2009).

Legend:
[1] = tested on: grass pollen allergic patients; assay: Skin prick test (immediate type skin reactions); conditions: standardized skin prick solution
Procedure: SPTs (skin prick tests) were performed on the individuals' forearms. Twenty microliter aliquots containing 5 concentrations of rPhl p 2 and of Phl p 2-derived mosaic P2M (1 μg/ml, 2 μg/ml, 4 μg/ml, 8 μg/ml, 16 μg/ml) were applied. In addition, standardized skin prick solutions (timothy grass pollen extract and histamine) (Allergopharma, Reinbeck, Germany) were tested. Reactions were recorded 20 minutes after SPT by photography and by transferring the ballpoint pen-surrounded wheal area with a scotch tape to paper. The mean wheal diameter (Dm) was calculated by measuring the maximal longitudinal and transversal diameter and dividing their sum by 2 as described by Focke et al., 2001.

[2] = Characteristics of Phl p 2-derived synthetic peptides (isoelectric point); type: physicochemical
From the text: Table 1: Characteristics of Phl p 2-derived synthetic peptides. […] Peptide 1 corresponds to SEQ ID NO:3, Peptide 3 corresponds to SEQ ID NO:4 and Peptide 2 corresponds to SEQ ID NO:5.

[3] = tested on: IgE antibodies in sera from grass pollen allergic patients; assay: IgE reactivity by dot blot with sera from grass pollen allergic patients; type: binding, human; conditions: for IgE binding capacity (dot blot): sera from 12 timothy grass pollen allergic patients
Procedure: The allergenic activity of the Phl p 2-derived peptides was evaluated by comparing the IgE-reactivity of complete rPhl p 2 with the peptides by dot blot analysis (FIG. 1). Nitrocellulose-dotted Phl p 2-derived peptides (P1-P3), an immunologically unrelated major grass pollen allergen, rPhl p 5 (Vrtala S, Sperr W R, Reimitzer I, van Ree R, Laffer S, Müller WD, Valent P, Lechner K, Rumpold H, Kraft D, Scheiner 0, Valenta R. cDNA cloning of a major allergen from timothy grass (Phleum pratense) pollen; characterization of the recombinant Phl p V allergen. J. Immunol. 1993, 151: 4773-4781), and for control purposes, human serum albumin as well as a control peptide were exposed to sera from grass pollen allergic patients and to serum from a non-allergic individual.
Bound IgE antibodies were detected as described previously (Valenta R, Duchêne M, Ebner C, Valent P, Sillaber C, Deviller P, Ferreira F, Tejkl M, Edelmann H, Kraft D, Scheiner O. Profilins constitute a novel family of functional plant pan-allergens. J. Exp. Med. 1992, 175: 377-385).
(§1) The IgE binding capacity of purified Phl p 2 mosaic (P2M) was compared with that of Phl p 2 wildtype by dot blot experiments as described for the peptides using sera from twelve timothy grass pollen allergic patients (FIG. 7). […] Basophils from a grass pollen allergic patient were enriched by dextran sedimentation and exposed to increasing concentrations of purified rPhl p 2 or rPhl p 2 mosaic as described (Valent P, Besemer J, Muhm M, Majdic O; Lechner K, Bettelhei P. Interleukin 3 activates human blood basophils via high-affinity binding sites. Proc. Natl. Acad. Sci. USA 1989, 86: 5542-5546).

serum IgE = conditions: cited from earlier work
[4] = tested on: Basophils from a grass pollen allergic patient; assay: Basophil histamine release; type: cell-based, human
From the text: as §1
Histamine released in the cell free supernatants was determined in triplicates by radioimmuno assay and is expressed as mean percentage of the total histamine content of the cells as described by Valent et al.

NCCc1c[nH]cn1 [Histamine, histamine]
mean wheal diameter ([1]; Individual 1): 8 mm
mean wheal diameter ([1]; Individual 2): 8 mm

Peptide 2: synthetic Phl p 2-derived peptide; Table 1 prints aa 65-96, SEQ ID NO:4; text says aa 34-64 (REHGSDEWVAMTKGEGGVWTFDSEEPLQGPFNC) [synthetic Phl p 2-derived peptide; text says aa 34-64]
Isoelectric point [2]: 4.03

Peptide 3: synthetic Phl p 2-derived peptide; Table 1 prints aa 34-64, SEQ ID NO:5; text says aa 65-96 (CFRFLTEKGMKNVFDDVVPEKYTIGATYAPEE) [synthetic Phl p 2-derived peptide; text says aa 65-96]
Isoelectric point [2]: 4.45

B1: rPhl p 2: recombinantly produced wild type timothy grass pollen allergen Phl p 2, his-tagged (protein)
chain: MVPKVTFTVEKGSNEKHLAVLVKYEGDTMAEVELREHGSDEWVAMTKGEGGVWTFDSEEPLQGPFNFRFLTEKGMKNVFDDVVPEKYTIGATYAPEEHHHHHH
IgE reactivity (dot blot) ([3]; nitrocellulose-dotted, sera from 35 grass pollen allergic patients): Sera from all 35 grass pollen allergic patients showed IgE reactivity
IgE binding capacity (dot blot) [3]: Sera from all 12 grass pollen allergic patients contained IgE antibodies against rPhl p 2
share of grass pollen allergic individuals whose serum IgE reacts (serum IgE): about 70%
concentration of maximal histamine release ([4]; basophils from a grass pollen allergic patient): 10^−3 μg/ml

B2: P2M: recombinant his-tagged mosaic protein: the three Phl p 2-derived peptides recombined in altered order 1, 3, 2 (SEQ ID NO:1) (protein)
chain: MVPKVTFTVEKGSNEKHLAVLVKYEGDTMAEVELFRFLTEKGMKNVFDDVVPEKYTIGATYAPEEREHGSDEWVAMTKGEGGVWTFDSEEPLQGPFNHHHHHH
modifications: His tag
IgE binding capacity (dot blot) [3]: no serum exhibited IgE reactivity
reduced allergenic activity compared to the rPhl p 2 allergen ([4]; basophil histamine release): more than 1000 fold
